# B1: Azoarcus group I ribozyme (parent)
# chain: GUGCCUUGCGCCGGGAAACCACGCAAGGGAUGGUGUCAAAUUCGGCGAAACCUAAGCGCCCGCCCGGGCGUAUGGCAACGCCGAGCCAAGCUUCGGCGCCUGCGCCGAUGAAGGUGUAGAGACUAGACGGCACCCACCUAAGGCAAACGCUAUGGUGAAGGCAUAGUCCAGGGAGUGGCGAAAGUCACACAAACCGG
# Variants of: B1
# Assay: reverse-splicing fitness (ratio to wild type); higher = more active; in vitro selection; Mg2+ level not given
# Procedure, shortened: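 An in vitro group I ribozyme library with randomized positions was T7-transcribed and gel-purified. In triplicate, 10 pmol RNA in EPPS pH 7.5 was reacted with 50 pmoles of a 30-nt RNA substrate for 1 h at 37 °C across several added MgCl2 levels (1–48 mM), then stopped with EDTA. Products were reverse transcribed from a substrate-complementary primer, PCR-amplified and sequenced (HiSeq 4000). Fitness is a variant's read proportion after selection over that before, normalised to wild type.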
row,Variant,reverse-splicing fitness
1,GUGCCUUGCGCCGGGAAACCACGCAAGGGAUGGUGUCAAAUUCGGCGAAACCUAAGCGCCCGCCCGGGCGUAUGGCAACGCGGAGCCAAGCUUCGGCGCCUGCGCCGAUGGAGGUGUAGAGACUAGACGGCACCCACCUAAGGCUAACGAUAUGGUGAAGGCAUAGUCGAGGGAGAGGCGAAAGUCACACAAACCGG [C82G A111G A145U C150A C169G U176A],0.0149
2,GUGCCUUGCGCCGGGAAACCACGCAAGGGAUGGUGUCAAAUUCGGCGAAACCUAAGCGCCCGCCCGGGCGUAUGGCAACGCGGAGCCAAGCUUCGGCGCCUGCGCCGAUGGAGGUGUAGAGACUAGACGGCACCCACCUAAGGCUAACGAUAUGGUGAAGGCAUAGUCGAGGGAGCGGCGAAAGUCACACAAACCGG [C82G A111G A145U C150A C169G U176C],0.0146
3,GUGCCUUGCGCCGGGAAACCACGCAAGGGAUGGUGUCAAAUUCGGCGAAACCUAAGCGCCCGCCCGGGCGUAUGGCAACGCGGAGCCAAGCUUCGGCGCCUGCGCCGAUGGAGGUGUAGAGACUAGACGGCACCCACCUAAGGCUAACGAUAUGGUGAAGGCAUAGUCGAGGGAGGGGCGAAAGUCACACAAACCGG [C82G A111G A145U C150A C169G U176G],0.00554
4,GUGCCUUGCGCCGGGAAACCACGCAAGGGAUGGUGUCAAAUUCGGCGAAACCUAAGCGCCCGCCCGGGCGUAUGGCAACGCGGAGCCAAGCUUCGGCGCCUGCGCCGAUGGAGGUGUAGAGACUAGACGGCACCCACCUAAGGCUAACGAUAUGGUGAAGGCAUAGUCUAGGGAGUGGCGAAAGUCACACAAACCGG [C82G A111G A145U C150A C169U],0.00982
5,GUGCCUUGCGCCGGGAAACCACGCAAGGGAUGGUGUCAAAUUCGGCGAAACCUAAGCGCCCGCCCGGGCGUAUGGCAACGCGGAGCCAAGCUUCGGCGCCUGCGCCGAUGGAGGUGUAGAGACUAGACGGCACCCACCUAAGGCUAACGAUAUGGUGAAGGCAUAGUCUAGGGAGAGGCGAAAGUCACACAAACCGG [C82G A111G A145U C150A C169U U176A],0.0141
6,GUGCCUUGCGCCGGGAAACCACGCAAGGGAUGGUGUCAAAUUCGGCGAAACCUAAGCGCCCGCCCGGGCGUAUGGCAACGCGGAGCCAAGCUUCGGCGCCUGCGCCGAUGGAGGUGUAGAGACUAGACGGCACCCACCUAAGGCUAACGAUAUGGUGAAGGCAUAGUCUAGGGAGCGGCGAAAGUCACACAAACCGG [C82G A111G A145U C150A C169U U176C],0.0148
7,GUGCCUUGCGCCGGGAAACCACGCAAGGGAUGGUGUCAAAUUCGGCGAAACCUAAGCGCCCGCCCGGGCGUAUGGCAACGCGGAGCCAAGCUUCGGCGCCUGCGCCGAUGGAGGUGUAGAGACUAGACGGCACCCACCUAAGGCUAACGAUAUGGUGAAGGCAUAGUCUAGGGAGGGGCGAAAGUCACACAAACCGG [C82G A111G A145U C150A C169U U176G],0.00554
8,GUGCCUUGCGCCGGGAAACCACGCAAGGGAUGGUGUCAAAUUCGGCGAAACCUAAGCGCCCGCCCGGGCGUAUGGCAACGCGGAGCCAAGCUUCGGCGCCUGCGCCGAUGGAGGUGUAGAGACUAGACGGCACCCACCUAAGGCUAACGAUAUGGUGAAGGCAUAGUCCAGGGAGAGGCGAAAGUCACACAAACCGG [C82G A111G A145U C150A U176A],0.03
9,GUGCCUUGCGCCGGGAAACCACGCAAGGGAUGGUGUCAAAUUCGGCGAAACCUAAGCGCCCGCCCGGGCGUAUGGCAACGCGGAGCCAAGCUUCGGCGCCUGCGCCGAUGGAGGUGUAGAGACUAGACGGCACCCACCUAAGGCUAACGAUAUGGUGAAGGCAUAGUCCAGGGAGCGGCGAAAGUCACACAAACCGG [C82G A111G A145U C150A U176C],0.0339
10,GUGCCUUGCGCCGGGAAACCACGCAAGGGAUGGUGUCAAAUUCGGCGAAACCUAAGCGCCCGCCCGGGCGUAUGGCAACGCGGAGCCAAGCUUCGGCGCCUGCGCCGAUGGAGGUGUAGAGACUAGACGGCACCCACCUAAGGCUAACGAUAUGGUGAAGGCAUAGUCCAGGGAGGGGCGAAAGUCACACAAACCGG [C82G A111G A145U C150A U176G],0.0136
11,GUGCCUUGCGCCGGGAAACCACGCAAGGGAUGGUGUCAAAUUCGGCGAAACCUAAGCGCCCGCCCGGGCGUAUGGCAACGCGGAGCCAAGCUUCGGCGCCUGCGCCGAUGGAGGUGUAGAGACUAGACGGCACCCACCUAAGGCUAACGGUAUGGUGAAGGCAUAGUCCAGGGAGUGGCGAAAGUCACACAAACCGG [C82G A111G A145U C150G],0.0338
12,GUGCCUUGCGCCGGGAAACCACGCAAGGGAUGGUGUCAAAUUCGGCGAAACCUAAGCGCCCGCCCGGGCGUAUGGCAACGCGGAGCCAAGCUUCGGCGCCUGCGCCGAUGGAGGUGUAGAGACUAGACGGCACCCACCUAAGGCUAACGGUAUGGUGAAGGCAUAGUCAAGGGAGUGGCGAAAGUCACACAAACCGG [C82G A111G A145U C150G C169A],0.0092
13,GUGCCUUGCGCCGGGAAACCACGCAAGGGAUGGUGUCAAAUUCGGCGAAACCUAAGCGCCCGCCCGGGCGUAUGGCAACGCGGAGCCAAGCUUCGGCGCCUGCGCCGAUGGAGGUGUAGAGACUAGACGGCACCCACCUAAGGCUAACGGUAUGGUGAAGGCAUAGUCAAGGGAGAGGCGAAAGUCACACAAACCGG [C82G A111G A145U C150G C169A U176A],0.0126
14,GUGCCUUGCGCCGGGAAACCACGCAAGGGAUGGUGUCAAAUUCGGCGAAACCUAAGCGCCCGCCCGGGCGUAUGGCAACGCGGAGCCAAGCUUCGGCGCCUGCGCCGAUGGAGGUGUAGAGACUAGACGGCACCCACCUAAGGCUAACGGUAUGGUGAAGGCAUAGUCAAGGGAGCGGCGAAAGUCACACAAACCGG [C82G A111G A145U C150G C169A U176C],0.0155
15,GUGCCUUGCGCCGGGAAACCACGCAAGGGAUGGUGUCAAAUUCGGCGAAACCUAAGCGCCCGCCCGGGCGUAUGGCAACGCGGAGCCAAGCUUCGGCGCCUGCGCCGAUGGAGGUGUAGAGACUAGACGGCACCCACCUAAGGCUAACGGUAUGGUGAAGGCAUAGUCAAGGGAGGGGCGAAAGUCACACAAACCGG [C82G A111G A145U C150G C169A U176G],0.00637

# From the RNAGym collection of RNA variant scans (doi:10.1093/molbev/msab373)
